Here are results for 16 molecules from patent publication US20260234232A1 (QUAERITE BIOPHARM RESEARCH BEIJING, published 2026).

Substitutions are numbered along the chain they refer to.

To fix the notation:
B1: 2V1-39GS (VHH)
chain: QLQLVESGGGSVQPGGSLRLSCEVSGRTFSSYTMGWFRQAPGKEREFVVAISKGGYKYDSVSLEARFTISKDNTKNTVYLQMNSLKPEDTAVYYCAATRAYGSSRLRLADTYEYWGQGTQVTVSSGGGGSGGGSGGGGSGGGGSGGGGSGGGGSGGGGSGGGGSQLQLVESGGGSVQPGGSLRLSCEVSGRTFSSYTMGWFRQAPGKEREFVVAISKGGYKYDSVSLEARFTISKDNTKNTVYLQMNSLKPEDTAVYYCAATRAYGSSRLRLADTYEYWGQGTQVTVSS
notes: Tandem bivalent nanobody
B2: 2V1-NL (VHH)
chain: QLQLVESGGGSVQPGGSLRLSCEVSGRTFSSYTMGWFRQAPGKEREFVVAISKGGYKYDSVSLEARFTISKDNTKNTVYLQMNSLKPEDTAVYYCAATRAYGSSRLRLADTYEYWGQGTQVTVSSQLQLVESGGGSVQPGGSLRLSCEVSGRTFSSYTMGWFRQAPGKEREFVVAISKGGYKYDSVSLEARFTISKDNTKNTVYLQMNSLKPEDTAVYYCAATRAYGSSRLRLADTYEYWGQGTQVTVSS
notes: Tandem bivalent nanobody; also called bivalent V1 without a linker
B3: 2V15-9S (VHH)
chain: QLQLVESGGGSVQPGGSLRLSCEVSGRTFASYTMGWFRQAPGKEREFVVAISKGGYKYDSVSLEARFTISKDNTKNTVYLQMNSLKPEDTAVYYCAGTRAYGSSRLRLAETYEYWGQGTQVTVSSSSSSSSSSSQLQLVESGGGSVQPGGSLRLSCEVSGRTFASYTMGWFRQAPGKEREFVVAISKGGYKYDSVSLEARFTISKDNTKNTVYLQMNSLKPEDTAVYYCAGTRAYGSSRLRLAETYEYWGQGTQVTVSS
notes: Tandem bivalent nanobody
B4: 2V1-(AP)5 (VHH)
chain: QLQLVESGGGSVQPGGSLRLSCEVSGRTFSSYTMGWFRQAPGKEREFVVAISKGGYKYDSVSLEARFTISKDNTKNTVYLQMNSLKPEDTAVYYCAATRAYGSSRLRLADTYEYWGQGTQVTVSSPDSAPAPAPAPAPDGSSQLQLVESGGGSVQPGGSLRLSCEVSGRTFSSYTMGWFRQAPGKEREFVVAISKGGYKYDSVSLEARFTISKDNTKNTVYLQMNSLKPEDTAVYYCAATRAYGSSRLRLADTYEYWGQGTQVTVSS
notes: Tandem bivalent nanobody
B5: 2V15-20S (VHH)
chain: QLQLVESGGGSVQPGGSLRLSCEVSGRTFASYTMGWFRQAPGKEREFVVAISKGGYKYDSVSLEARFTISKDNTKNTVYLQMNSLKPEDTAVYYCAGTRAYGSSRLRLAETYEYWGQGTQVTVSSSSSSSSSSSSSSSSSSSSSSQLQLVESGGGSVQPGGSLRLSCEVSGRTFASYTMGWFRQAPGKEREFVVAISKGGYKYDSVSLEARFTISKDNTKNTVYLQMNSLKPEDTAVYYCAGTRAYGSSRLRLAETYEYWGQGTQVTVSS
notes: Tandem bivalent nanobody
B6: 2V1-30GS (VHH)
chain: QLQLVESGGGSVQPGGSLRLSCEVSGRTFSSYTMGWFRQAPGKEREFVVAISKGGYKYDSVSLEARFTISKDNTKNTVYLQMNSLKPEDTAVYYCAATRAYGSSRLRLADTYEYWGQGTQVTVSSGGGGSGGGSGGGGSGGGSGGGSGGGSGGGSQLQLVESGGGSVQPGGSLRLSCEVSGRTFSSYTMGWFRQAPGKEREFVVAISKGGYKYDSVSLEARFTISKDNTKNTVYLQMNSLKPEDTAVYYCAATRAYGSSRLRLADTYEYWGQGTQVTVSS
notes: Tandem bivalent nanobody
B7: 2V15-30GS (VHH)
chain: B6 chain with S30A, A97G, D110E, S185A, A252G, D265E
notes: Tandem bivalent nanobody
B8: 2V1-EAAAK-Turn (VHH)
chain: QLQLVESGGGSVQPGGSLRLSCEVSGRTFSSYTMGWFRQAPGKEREFVVAISKGGYKYDSVSLEARFTISKDNTKNTVYLQMNSLKPEDTAVYYCAATRAYGSSRLRLADTYEYWGQGTQVTVSSPDSEAAAKEAAAKEAAAKEAAAKEAAAKPDGSSQLQLVESGGGSVQPGGSLRLSCEVSGRTFSSYTMGWFRQAPGKEREFVVAISKGGYKYDSVSLEARFTISKDNTKNTVYLQMNSLKPEDTAVYYCAATRAYGSSRLRLADTYEYWGQGTQVTVSS
notes: Tandem bivalent nanobody
B9: 2V15-EAAAK-Turn (VHH)
chain: B8 chain with S30A, A97G, D110E, S188A, A255G, D268E
notes: Tandem bivalent nanobody
B10: 2V15-25GS (VHH)
chain: QLQLVESGGGSVQPGGSLRLSCEVSGRTFASYTMGWFRQAPGKEREFVVAISKGGYKYDSVSLEARFTISKDNTKNTVYLQMNSLKPEDTAVYYCAGTRAYGSSRLRLAETYEYWGQGTQVTVSSGGGGSGGGSGGGSGGGSGGGSGGGSQLQLVESGGGSVQPGGSLRLSCEVSGRTFASYTMGWFRQAPGKEREFVVAISKGGYKYDSVSLEARFTISKDNTKNTVYLQMNSLKPEDTAVYYCAGTRAYGSSRLRLAETYEYWGQGTQVTVSS
notes: Tandem bivalent nanobody
B11: 2V1-(AP)10 (VHH)
chain: QLQLVESGGGSVQPGGSLRLSCEVSGRTFSSYTMGWFRQAPGKEREFVVAISKGGYKYDSVSLEARFTISKDNTKNTVYLQMNSLKPEDTAVYYCAATRAYGSSRLRLADTYEYWGQGTQVTVSSPDSAPAPAPAPAPAPAPAPAPAPDGSSQLQLVESGGGSVQPGGSLRLSCEVSGRTFSSYTMGWFRQAPGKEREFVVAISKGGYKYDSVSLEARFTISKDNTKNTVYLQMNSLKPEDTAVYYCAATRAYGSSRLRLADTYEYWGQGTQVTVSS
notes: Tandem bivalent nanobody
B12: 2V1-6A (VHH)
chain: QLQLVESGGGSVQPGGSLRLSCEVSGRTFSSYTMGWFRQAPGKEREFVVAISKGGYKYDSVSLEARFTISKDNTKNTVYLQMNSLKPEDTAVYYCAATRAYGSSRLRLADTYEYWGQGTQVTVSSAAAAAAQLQLVESGGGSVQPGGSLRLSCEVSGRTFSSYTMGWFRQAPGKEREFVVAISKGGYKYDSVSLEARFTISKDNTKNTVYLQMNSLKPEDTAVYYCAATRAYGSSRLRLADTYEYWGQGTQVTVSS
notes: Tandem bivalent nanobody
B13: 2V1-3A (VHH)
chain: QLQLVESGGGSVQPGGSLRLSCEVSGRTFSSYTMGWFRQAPGKEREFVVAISKGGYKYDSVSLEARFTISKDNTKNTVYLQMNSLKPEDTAVYYCAATRAYGSSRLRLADTYEYWGQGTQVTVSSAAAQLQLVESGGGSVQPGGSLRLSCEVSGRTFSSYTMGWFRQAPGKEREFVVAISKGGYKYDSVSLEARFTISKDNTKNTVYLQMNSLKPEDTAVYYCAATRAYGSSRLRLADTYEYWGQGTQVTVSS
notes: Tandem bivalent nanobody
B14: 2V15-20GS (VHH)
chain: QLQLVESGGGSVQPGGSLRLSCEVSGRTFASYTMGWFRQAPGKEREFVVAISKGGYKYDSVSLEARFTISKDNTKNTVYLQMNSLKPEDTAVYYCAGTRAYGSSRLRLAETYEYWGQGTQVTVSSGGGGSGGGSGGGSGGGSGGSQLQLVESGGGSVQPGGSLRLSCEVSGRTFASYTMGWFRQAPGKEREFVVAISKGGYKYDSVSLEARFTISKDNTKNTVYLQMNSLKPEDTAVYYCAGTRAYGSSRLRLAETYEYWGQGTQVTVSS
notes: Tandem bivalent nanobody
B15: 2V1-EAAAK-Rigid (VHH)
chain: QLQLVESGGGSVQPGGSLRLSCEVSGRTFSSYTMGWFRQAPGKEREFVVAISKGGYKYDSVSLEARFTISKDNTKNTVYLQMNSLKPEDTAVYYCAATRAYGSSRLRLADTYEYWGQGTQVTVSSLAEAAAKEAAAKEAAAKEAAAKEAAAKAAAQLQLVESGGGSVQPGGSLRLSCEVSGRTFSSYTMGWFRQAPGKEREFVVAISKGGYKYDSVSLEARFTISKDNTKNTVYLQMNSLKPEDTAVYYCAATRAYGSSRLRLADTYEYWGQGTQVTVSS
notes: Tandem bivalent nanobody
B16: 2V1-3GS (VHH)
chain: B13 chain with A126G, A127G, A128S
notes: Tandem bivalent nanobody

The target of one assay is T1, human VEGFA165 (human, UniProt P15692-4 27-191).
T1 construct: Bought protein from two suppliers, treated as one molecule; the supplier is named under assay; also called antigen VEGFA
T1 sequence (P15692 other isoform, or with tags, fused parts or gaps limits assumed): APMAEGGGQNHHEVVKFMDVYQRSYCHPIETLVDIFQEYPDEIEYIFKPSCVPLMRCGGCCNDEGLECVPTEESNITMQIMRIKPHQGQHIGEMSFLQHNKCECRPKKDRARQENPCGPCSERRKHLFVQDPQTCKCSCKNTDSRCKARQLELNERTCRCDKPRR
Nature of the assay: ELISA, coated human VEGFA165, anti-His detection. The procedure: Antigen human VEGFA165 (label-free, purchased from Sino Biological, Cat. No.: HPLC-10008-HNAH, hereinafter referred to as VEGFA) was diluted with ELISA coating buffer to a final concentration of 0.3 μg/mL and added to a microplate at 100 μL/well for coating at 4° C. overnight. […] The solution used for antibody dilution was PBS containing 0.1% Tween-20 (pH 7.4), i.e., PBST. After being incubated at 37° C. for 1 h, the microplate was washed 3 times with PBST, and a dilution of His-Tag murine monoclonal antibody (purchased from Proteintech, Cat. No.: 66005-1-Ig) was added. The plate was further incubated at 37° C. for 1 h and washed again. Subsequently, a dilution of HRP-labeled goat anti-mouse IgG antibody (HRP-conjugated Affinipure Goat Anti-Mouse IgG (H+L), purchased from Proteintech, Cat. No.: SA00001-1) was added, and the plate was incubated at room temperature for 45 min. After the plate was washed, 100 μL of TMB (purchased from Tiangen Biotech, Cat. No.: PA107-01) was added to each well for color development at 37° C. for 15 min, followed by the addition of 50 μL of stopping solution. The absorbance at 450 nm (OD450) was measured using a microplate reader.
Background: In an ELISA, binding on a coated surface is turned into a signal by an enzyme label.
One may read the EC50 as the concentration at which the effect is half-maximal. Low values mean a more potent agent, high ones a less potent agent. For the molecule B1, a half-maximal response (EC50) required 0.18 nM. Consider B2, for which the half-maximal effective concentration (EC50) worked out at 0.29 nM.

Turning to B3, the concentration giving a half-maximal response (EC50) is 0.21 nM. In the case of B4, the midpoint of the response, the EC50, lay at 0.19 nM. Consider B5, for which the 50% effective concentration (EC50) is 0.43 nM. B6 yielded an EC50 of 0.22 nM. On the same count and under the same terms, in the case of B7 it was 0.27 nM.

As for B8, the response was half-maximal at 0.31 nM (EC50). In the case of B9, the response was half-maximal at 0.33 nM (EC50). The molecule B10 had a half-maximal effective concentration (EC50) of 0.24 nM. For the molecule B11, the EC50 is 0.18 nM. B12 came in with a concentration giving a half-maximal response (EC50) of 0.33 nM. Molecule B13 gave a concentration for a half-maximal effect (EC50) of 0.25 nM. As for B14, the EC50 was determined as 0.28 nM. The EC50 values of the last two molecules are within 1.5-fold of each other. Still for that read-out and setting: with B15 the figure was 0.22 nM.

The next assay addresses T1, human VEGFA165. Nature of the assay: competitive ELISA, coated VEGFA, competitor VEGFR2-ECD-Fc 1 nM.
By IC50 is commonly meant the concentration needed to halve the response being measured. High values mean weaker potency in that assay, low ones greater potency in that assay. Turning to B3, the half-inhibitory concentration (IC50) was 3.53 nM and the “Maximum inhibition rate (%)” value came to 88.8%. As to B5, the concentration for half-maximal inhibition (IC50) turned out to be 4.38 nM and the “Maximum inhibition rate (%)” value was 89.8%. In the same order, the values of B7 are 1.6 nM and 94.1%. For the molecule B8, the 50% inhibitory concentration (IC50) is 1.56 nM and the “Maximum inhibition rate (%)” value stood at 96.8%. With B9, the 50% inhibitory concentration (IC50) was found to be 1.76 nM and the “Maximum inhibition rate (%)” value came out at 96.7%. Regarding B10, the IC50 worked out at 1.66 nM and the “Maximum inhibition rate (%)” value worked out at 94.5%. As for B16, the IC50 was 3 nM and the “Maximum inhibition rate (%)” value was determined as 91%.

For the molecule B14, the IC50 came out at 2.03 nM and the “Maximum inhibition rate (%)” value amounted to 94.2%.
